One protein from patent publication US20220155286 can be followed below.

Series [1] deals with BCL6 (B-Cell Lymphoma 6) S-Peptide micro-tag construct.
The target of series [2] is MTH1-10aa-S-tag fusion protein.
Series [3] addresses MTH1-S-tag fusion protein (no linker between MTH1 and the S-tag peptide).
Series [4] has as its target MTH1-3aa-S-tag fusion protein.

B1: His tagged RNase donor protein (S protein) (protein)
chain: MSSSNYCNQMMKSRNLTKDRCKPVNTFVHESLADVQAVCSQKNVACKNGQTNCYQSYSTMSITDCRETGSSKYPNCAYKTTQANKHIIVACEGNPYVPVHFDASVHHHHHH
For the protein B1, the “fluorescence signal (RLU/min) after heat challenge” value in series [1] was “the micro-tag construct was denatured in the heat challenge and there was less micro-tag available for enzyme complementation resulting in lower fluorescence signal”. For the same protein, in series [2], the “S protein concentration at which the fluorescent signal starts to saturate” value (shortened to “S protein concentration”) is “S protein concentration started to saturate signal at about 1-2 ng/ul S protein” and the “fluorescent signal (cleavage of the FRET substrate by complemented RNase S), 50 ug lysate, thermal gradient” value (shortened to “fluorescent signal … thermal gradient”) is listed as “there was no significant effect of spacer length on fluorescent signal”. In series [3], the “S protein concentration” value is listed as “S protein concentration started to saturate signal at about 1-2 ng/ul S protein” and the “fluorescent signal … thermal gradient” value is given as “there was no significant effect of spacer length on fluorescent signal”. In series [4], the “S protein concentration” value was “S protein concentration started to saturate signal at about 1-2 ng/ul S protein”; the “fluorescence increase (RLU change per minute)” value was “detected fluorescence increase that was directly proportional to the amount of micro-tagged protein in the reaction”; the “fluorescent signal … thermal gradient” value is given as “there was no significant effect of spacer length on fluorescent signal”; the “kinetic trace of the S-tag (Micro-tag) fluorescence signal over 20 minutes” value was “A kinetic trace of the development of the S-tag (Micro-tag) fluorescence signal over the course of 20 minutes”.
